Where no end group is shown, it is not given here. [ ]: non-standard residue; d: D form.
How the values were obtained:
human neutrophils = assay: Intracellular calcium mobilization (fura-2) in human neutrophils; type: cell-based; settings: 1 M PACAP27 and 10 nM WKYMVm
Description: Neutrophils were stimulated with 1 μM of PACAP27 (SEQ ID NO:1), PACAP38 (SEQ ID NO:2), or VIP (SEQ ID NO:3), and calcium concentrations were measured for 10 min. In order to measure EKR phosphorylation, each peptide hormones was used with 1 μM concentrations for 5 min. For cAMP measurement, each peptide hormones was used with 1 μM concentrations for 10 min.
Intracellular calcium concentrations ([Ca^2+]i) were determined using Grynkiewicz's method with fura-2/AM, as described in “Grynkiewicz, G., M. Poenie, and R. Y. Tsien. 1985. […] J. Biol. Chem. 260:3440-3450”. Briefly, the cells prepared in Example 1.2 were incubated with 3 µM fura-2/AM at 37° C. for 50 minutes in fresh serum free RPMI 1640 medium with continuous stirring. The incubated cells (2×10^6) were aliquoted for each assay in Ca^2+-free Locke's solution (154 mM NaCl, 5.6 mM KCl, 1.2 mM MgCl2, 5 mM HEPES (pH 7.3), 10 mM glucose, and 0.2 mM EGTA). Fluorescence changes at 340 and 380 nm using a common emission wavelength of 500 nm were measured, and fluorescence ratios were converted to [Ca2+]i, as described in above Grynkiewicz, G. et al.

C57BL/6 mice = assay: Mouse Matrigel plug assay; type: in vivo; settings: 7 days; for vessels in Matrigel (stained sections): SAA 80 μg or WKYMVm 1 μg
Description: C57BL/6 mice (7 weeks of age) were given s.c. injections of 500 μl of Matrigel containing PBS, SAA (SEQ ID NO:19) (80 μg), or WKYMVm (SEQ ID NO:5) (1 μg). After 7 days, the skins of the mice were pulled back to expose the Matrigel plugs, which remained intact. After the noting and photographing of any quantitative differences, hemoglobin levels were measured via the Drabkin method, using a Drabkin reagent kit 525 (Sigma) for the quantitative assessment of blood vessel formation. The hemoglobin concentration was calculated from the parallel assay of a known amount of hemoglobin. The matrigel plugs were fixed in 4% formalin, embedded with paraffin, and stained using hematoxylin and eosin.

HUVECs [1] = assay: HUVEC proliferation ([3H]-thymidine incorporation); type: cell-based, human; settings: 48 h
Description: In brief, fresh synovial tissues were minced into 2- to 3-mm pieces, then treated for 4 h with 4 mg/ml type I collagenase (Worthington Biochemical), and maintained in Dulbecco's Modified Eagle's Medium (DMEM) containing 10% FBS at 37° C. in an atmosphere containing 5% CO2. […] MH7A cells, the immortalized synoviocytes that harbor the SV40 T antigen, were grown in DMEM supplemented with 10% FBS, as previously described (Miyazawa, K, A. Mori, and H. Okudaira. 1998. Establishment and characterization of a novel human rheumatoid fibroblast-like synoviocyte line, MH7A, immortalized with S[…] antigen. J. Biochem. 124: 1153-1162), and then employed in some of the experiments. Human umbilical vein endothelial cells (HUVECs) were isolated from fresh human umbilical cords via collagenase (Worthington Biochemical) digestion, and then maintained in 20% FBS-containing M-199 medium (Sigma, St. Louis, Mo.), as previously described. All HUVECs were used after no more than five passages. The RA FLS, OA FLS, and HUVECs were plated onto 24-well culture dishes at a density of 2×10^4 cells/well, and then permitted to attach overnight. […] Cell growth was also evaluated via cell counts. Control and mitogen-treated cells were harvested by trypsinization, and the number of cells was determined with a hemocytometer, under ×100 magnification.

HUVECs [2] = assay: HUVEC tube formation assay on Matrigel; type: cell-based, human; settings: SAA 5 μM, 18 h
Description: The wounding migration and tube formation activity of the HUVECs were measured as previously described (30, 31). In brief, HUVECs plated at confluence on 60-mm culture dishes were wounded with pipette tips, then treated with SAA (SEQ ID NO:19) (0-5 μg/ml), WKYMVm (SEQ ID NO:5) (10 nM), or VEGF (20 ng/ml) in M199 medium, supplemented with 1% serum and 1 mM thymidine. After 12 h of incubation, migration was quantitated via counts of the cells migrating beyond the reference line. […] After 18 h of incubation, the cell morphology was visualized via phase-contrast microscopy and photographed.

aortic rings = assay: Rat aorta ring assay; settings: ex vivo, 7 days
Description: Aortas from male Sprague-Dawley rats were cross-sectioned into rings, and mounted onto polymerized Matrigel dishes. Matrigel (150 μl) was then positioned on top and allowed to gel. After 7 days, the aortic rings, incubated with PBS, SAA (SEQ ID NO:19) (3 and 5 μg/ml), WKYMVm (SEQ ID NO:5) (10 nM), VEGF (20 ng/ml), or FBS (10%) were analyzed under an inverted microscope.

## WKYMVm: specific agonist peptide for FPRL1, SEQ ID NO:5 (WKYMV[dM]; listed as Homo sapiens)
Human neutrophils
  calcium signaling on sequential stimulation (cross-desensitization): bidirectional desensitization
C57BL/6 mice
  vessels in Matrigel (stained sections): more vessels

B1: SAA: Serum amyloid A, multi-functional apolipoprotein, 12- to 14-kDa, SEQ ID NO:19 (protein, listed as Homo sapiens)
chain: MKLLTGLVFCSLVLGVSSRSFFSFLGEAFDGARDMWRAYSDMREANYIGSDKYFHARGNYDAAKRGPGGVWAAEAISDARENIQRFFGHGAEDSLADQAANEWGRSGKDPNHFRPAGLPEKY
HUVECs [1]
  concentration of maximum effects on HUVEC DNA synthesis: 5 µM
HUVECs [1]; SAA 0.1 to 5 μM
  DNA synthesis in HUVECs: dose-dependent manner
HUVECs [2]
  formation of tube-like structures: far superior
Aortic rings
  sprouting of endothelial cells from aortic rings: increased as the result of SAA treatment, in a dose-dependent manner
C57BL/6 mice; SAA 80 μg in Matrigel s.c.
  mean hemoglobin content of Matrigels: 4.90 ± 0.66 g/dL
C57BL/6 mice
  vessels in Matrigel (stained sections): more vessels
